# According to article PMC12022753, “Mechanism of Cas9 inhibition by AcrIIA11”:
# T1: SaCas9 (Staphylococcus aureus, UniProt J7RUA5 1-1053)
# T1 sequence: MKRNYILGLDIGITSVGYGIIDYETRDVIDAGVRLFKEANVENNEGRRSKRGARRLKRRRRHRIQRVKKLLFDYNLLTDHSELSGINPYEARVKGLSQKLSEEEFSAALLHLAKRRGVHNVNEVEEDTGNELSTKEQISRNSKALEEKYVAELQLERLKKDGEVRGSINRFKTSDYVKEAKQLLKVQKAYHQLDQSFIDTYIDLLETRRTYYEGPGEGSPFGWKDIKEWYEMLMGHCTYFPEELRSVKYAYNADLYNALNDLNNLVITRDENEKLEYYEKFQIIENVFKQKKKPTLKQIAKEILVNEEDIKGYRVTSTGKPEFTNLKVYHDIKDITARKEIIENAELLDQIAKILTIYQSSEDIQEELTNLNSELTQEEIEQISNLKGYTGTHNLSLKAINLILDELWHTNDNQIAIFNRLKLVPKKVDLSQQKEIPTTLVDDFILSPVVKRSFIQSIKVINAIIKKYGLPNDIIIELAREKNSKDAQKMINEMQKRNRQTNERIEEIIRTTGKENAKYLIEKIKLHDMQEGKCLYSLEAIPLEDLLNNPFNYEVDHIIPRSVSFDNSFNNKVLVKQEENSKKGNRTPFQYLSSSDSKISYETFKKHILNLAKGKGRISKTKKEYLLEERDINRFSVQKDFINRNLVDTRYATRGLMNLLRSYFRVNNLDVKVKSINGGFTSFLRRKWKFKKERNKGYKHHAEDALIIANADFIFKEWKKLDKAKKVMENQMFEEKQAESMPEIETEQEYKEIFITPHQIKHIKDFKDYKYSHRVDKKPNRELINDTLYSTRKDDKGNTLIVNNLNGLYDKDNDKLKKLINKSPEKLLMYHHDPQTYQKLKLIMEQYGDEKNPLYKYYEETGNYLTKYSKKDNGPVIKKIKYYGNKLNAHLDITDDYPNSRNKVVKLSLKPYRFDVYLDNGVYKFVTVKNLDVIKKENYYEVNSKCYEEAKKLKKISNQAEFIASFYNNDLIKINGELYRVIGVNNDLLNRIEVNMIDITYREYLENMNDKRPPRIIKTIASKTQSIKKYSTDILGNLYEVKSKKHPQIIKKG
# B1: SaCas9 RNP from TS-SUMO-SaCas9-sgRNA (enzyme)
# chain: T1 sequence
# B2: SaCas9 SMART target sgRNA (structured_RNA)
# RNA: UAAUGAAAUAAGAUCACUACGUUUUAGUACUCUGGAAACAGAAUCUACUAAAACAAGGCAAAAUGCCGUGUUUAUCUCGUCAACUUGUUGGCGAGAU
# Experiments:
# [1] = molecular target: SaCas9;AcrIIA11 (Staphylococcus aureus;) (UniProt J7RUA5); assay: single-molecule DNA curtains; details: 100 mM KCl, 5 mM MgCl2, 1 mM DTT, 37 C, sgRNA EMSA: 20 mM Tris-HCl pH 8, 5% glycerol, 1 mM NaCl
# SaCas9 [2] = molecular target: T1, SaCas9; assay: single-molecule DNA curtains; details: EMSA: 20 mM Tris-HCl pH 8, 5% glycerol, 100 mM KCl, 5 mM MgCl2, 1 mM DTT, 37 C, 1 mM NaCl
# [3] = molecular target: dSaCas9 (nuclease-dead SaCas9);AcrIIA11 D10A;N580A (Staphylococcus aureus;) (UniProt J7RUA5); assay: EMSA; details: 100 mM KCl, 5 mM MgCl2, 1 mM DTT, 37 C, sgRNA EMSA: 20 mM Tris-HCl pH 8, 5% glycerol, 1 mM NaCl
# AcrIIA11-6xHis = assay: negative-stain electron microscopy; SaCas9 RNP mixed with ~2-fold excess of AcrIIA11-6xHis, passed over Superose 6 (peak eluted at a higher molecular weight than SaCas9 RNP); 200 mM NaCl, 25 mM HEPES pH 7.5, 5% glycerol, 2 mM DTT; low-resolution 3D reconstruction from 16 761 particles with the SaCas9 RNP crystal structure docked
# SaCas9 [4] = molecular target: T1, SaCas9; assay: EMSA; RNP preformed with 490 nM SaCas9; EMSA: 20 mM Tris-HCl pH 8, 5% glycerol, 100 mM KCl, 5 mM MgCl2, 1 mM DTT, 37 C; sgRNA EMSA: 20 mM Tris-HCl pH 8, 5% glycerol, 1 mM NaCl, 1 mM DTT, 37 C; curtains (dSaCas9): 40 mM Tris-HCl pH 8, 2 mM MgCl2, 100 mM NaCl, 1 mM DTT, 0.2 mg/ml BSA; details: protein: recombinant, tags: N-terminal 3xFLAG, 6xHis-TwinStrep-SUMO removed, label: 5'-32P
molecule,measurement,setting,value
48.5 kb DNA (lambda) with 29.4 kb-target sgRNA,binding signal (% of molecules at target within 90 s),"[1]; EMSA: 20 mM Tris-HCl pH 8, 5% glycerol",12
same,binding signal (% of molecules at target within 90 s),"SaCas9 [2]; sgRNA EMSA: 20 mM Tris-HCl pH 8, 5% glycerol",43
AAGAACGCCTCGCACACTCTTTTGACTTGATCGGCACGTAAGAGGTTCCAACTTTCACCATAATGAAATAAGATCACTACTTGGGTTATTTTTTGAGTTATCGAGATTTTCAGACTCTGTTATTCGGCGGTT (double strand) [SMART PCR DNA with noncomplementary sgRNA],binding signal,"[3]; 2 uM AcrIIA11, noncomplementary, EMSA: 20 mM Tris-HCl pH 8, 5% glycerol",32 % DNA bound
"TTTGGGTATTGGGTATTGGGTTTTGGGTTTGGGTTATTTT (double strand) [5x strong PAM DNA (KD201/KD202), nontarget]",binding signal,"[3]; 25 nM dSaCas9 and sgRNA, 5 uM AcrIIA11, EMSA: 20 mM Tris-HCl pH 8, 5% glycerol",90 % DNA bound
lambda DNA with scrambled sgRNA (no target),binding signal,"[1]; scrambled sgRNA, AcrIIA11, EMSA: 20 mM Tris-HCl pH 8, 5% glycerol",98 s (lifetime)
same,binding signal (s (half-dissociation lifetime)),SaCas9 [2]; scrambled sgRNA,61
B1,stoichiometry N,AcrIIA11-6xHis,1
B2,binding result,SaCas9 [4],binds
